Experimental data: patent CN106749645A

Target: HCV包膜糖蛋白
Assay: cell-based or functional assay

B1: 全人源抗HCV中和抗体TRN1002 (antibody)
heavy: QVQLVQSGAEVKKPGSSVRVSCKASGGTLGSFAGSWVRQAPGQGLEWIGGIIPMFRRTNYAQKFQGRVTITADESTGTTYLELSSLRSDDTAIYFCAREIPGYCTGGRCFGYFDYWGQGTLVTVSS
light: EIVLTQSPGTLSLSPGESATLSCRASQHVNSNFLAWYQQKRGQTPRLLIYAASSRATGIPDRFSGSGSGTDFTLTISRLEPEDFAVYYCQQYGTSLTFGQGTKVEIK
  Luciferase活性 (荧光值), HCVpp感染Huh7细胞: 100 %
